Data published in paper PMC7506995 (EMBO Molecular Medicine, 2020).
Where a chain is given by its changes, count along the chain named. Where two headings read alike, the source gives them in different places.

Legend:
human recPrP_(23-230) [1] = molecular target: T1, human recPrP_(23-230) (Homo sapiens, UniProt P04156)
[2] = molecular target: T2, full-length recombinant mouse PrP (recPrP23-231) (Mus musculus, UniProt P04925); assay: ELISA; details: both partners purified
T2 construct: source: recombinant, produced as described (Lysek & Wuthrich, 2004)

peptide P17 = molecular target: T3, peptide P17 (Mus musculus); assay: co-IP; details: both partners purified
T3 chain: TWGQPHGGGWGQ

[3] = molecular target: T4, full-length recombinant mouse PrP (recPrP_(23-231)) (Mus musculus, UniProt P04925); assay: SPR; […]; 25°C; 10 mM Tris/HCl pH 8.5, 500 mM NaCl, 3 mM EDTA, 0.05% Tween-20; 1:1 Langmuir fit; ProteOn XPR36; details: both partners purified
T4 construct: source: recombinant, produced as described (Lysek & Wuthrich, 2004)

[4] = molecular target: T2, full-length recombinant mouse PrP …; assay: ELISA; details: both partners purified; remark: listed apart in the source
human recPrP_(23-230) [5] = molecular target: T1, human recPrP_(23-230); assay: ELISA; details: both partners purified

B1: BB_VH3-21 (antibody, V domains shown)
VH: EVQLVESGGGLVKPGGSLRLSCAASGFTFSSYSMNWVRQAPGKGLEWVSSISSSSSYIYYADSVKGRFTISRDNAKNSLYLQMNSLRAEDTAVYYCARVSYGGYFDYWGQGTLVTVSS
VL: not shown
- binding result (human recPrP_(23-230) [1]): binds

B2: BB_VH3-66 (antibody, V domains shown)
VH: EVQLVESGGGLVQPGGSLRLSCAASGFTVSSNYMSWVRQAPGKGLEWVSVIYSGGSTYYADSVKGRFTISRDNSKNTLYLQMNSLRAEDTAVYYCARSGSYGGYFDYWGQGTLVTVSS
VL: not shown
- binding result (human recPrP_(23-230) [1]): binds

B3: DW_VH3-53 (antibody, V domains shown)
VH: B2 VH with S7T, V12I, S98V, G99S, S100Y, Y101G, G103Y
VL: not shown
- binding result (human recPrP_(23-230) [1]): binds

B4: Fab53 (Fab, V domains shown)
VH: QVQLVESGGGVVQPGRSLRLSCAASGFTFSSYGMHWVRQAPGKGLEWVAVISYEGSNKYYADSVKGRFTISRDNSKNTLYLQMNSLRAEDTAVYYCARVYVYRSYRHSSGYGYPGFDVWGQGTLVTVSS
VL: not shown
notes: source: E. coli BL21(DE3), purified (IMAC)
- binding result [2]: binds

B5: Fab61 (Fab, V domains shown)
VH: B4 VH with V101P, R103P, S104Y, Y105V, R106Y, H107A, S108E, G110D, Y111G, G112S
VL: not shown
notes: as for B4
- binding result [2]: binds

B6: BB_VH3-33 (antibody, V domains shown)
VH: QVQLVESGGGVVQPGRSLRLSCAASGFTFSSYGMHWVRQAPGKGLEWVAVIWYDGSNKYYADSVKGRFTISRDNSKNTLYLQMNSLRAEDTAVYYCAREHSYGGYFDYWGQGTLVTVSS
VL: not shown
- binding result (human recPrP_(23-230) [1]): binds

B7: Fab71 (Fab, V domains shown)
VH: B6 VH with W52S, D54E, E99H, H100V
VL: not shown
notes: also called anti-OR_(51-91) Fab71; source: E. coli BL21(DE3), pPE2 vector, purified by IMAC (Ni-NTA)
- binding result (peptide P17): binds
- Kd [3]: 0.0062 µM
- koff [3]: 0.00245 s⁻¹

B8: Fab71 (Fab, V domains shown)
VH: B6 VH with W52S, D54E, E99H, H100V
VL: not shown
notes: as for B4
- EC50 [4]: 0.0249 µM

B9: Fab8 (Fab, V domains shown)
VH: QVQLVESGGGVVQPGRSLRLSCAASGFTFSSYGMHWVRQAPGKGLEWVAVISYEGSNKYYADSVKGRFTISRDNSKNTLYLQMNSLRAEDTAVYYCARHYGGRLDYWGQGTLVTVSS
VL: not shown
notes: as for B4
- binding result [2]: binds

B10: Fab12 (Fab, V domains shown)
VH: B9 VH with R103Q
VL: not shown
notes: as for B4
- binding result [2]: binds

B11: Fab10 (Fab, V domains shown)
VH: B9 VH with R103W, L104F
VL: not shown
notes: as for B4
- binding result [2]: binds

B12: Fab69 (Fab, V domains shown)
VH: QVQLVESGGGVVQPGRSLRLSCAASGFTFSSYGMHWVRQAPGKGLEWVAVISYEGSNKYYADSVKGRFTISRDNSKNTLYLQMNSLRAEDTAVYYCARVHPGVHYRPGGFDYWGQGTLVTVSS
VL: not shown
notes: as for B4
- binding result [2]: binds

B13: DK_VH3-07 Fab (Fab, V domains shown)
VH: EVQLVESGGGLVQPGGSLRLSCAASGFTFSSYWMSWVRQAPGKGLEWVANIKQDGSEKYYVDSVKGRFTISRDNAKNSLYLQMNSLRAEDTAVYYCARSYGGYFDYWGQGTLVTVSS
VL: QSALTQPASVSGSPGQSITISCTGTSSDVGGYNYVSWYQQHPGKAPKLMIYEVSNRPSGVSNRFSGSKSGNTASLTISGLQAEDEADYYCTSYTSSSTHVVFGGGTKLTVL
notes: source: expressed in bacteria (pPE2 vector), purified
- EC50 (human recPrP_(23-230) [5]): 62.8 µM
- binding result (human recPrP_(23-230) [5]): no binding (tested: Fabs tested starting from 3 μM)

B14: Fab44 (Fab, V domains shown)
VH: QVQLVESGGGVVQPGRSLRLSCAASGFTFSSYGMHWVRQAPGKGLEWVAVISYEGSNKYYADSVKGRFTISRDNSKNTLYLQMNSLRAEDTAVYYCARVAYAVGSSYRSSSYSPGFDVWGQGTLVTVSS
VL: not shown
notes: as for B4
- binding result [2]: binds

B15: Fab13 (Fab, V domains shown)
VH: QVQLVESGGGVVQPGRSLRLSCAASGFTFSSYGMHWVRQAPGKGLEWVAVISYEGSNKYYADSVKGRFTISRDNSKNTLYLQMNSLRAEDTAVYYCARVWSPDGYPGFDYWGQGTLVTVSS
VL: not shown
notes: as for B4
- binding result [2]: binds
